T1: CD40L (UniProt P29965 113-261, limits assumed)
T1 construct: SPR analyte
T1 sequence (looked up): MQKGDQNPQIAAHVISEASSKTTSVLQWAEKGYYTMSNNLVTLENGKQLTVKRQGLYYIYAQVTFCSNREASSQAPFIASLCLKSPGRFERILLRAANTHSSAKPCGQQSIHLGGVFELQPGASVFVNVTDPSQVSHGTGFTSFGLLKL

T2: CD40L over-expressed on Expi293 cells (UniProt P29965 1-261, limits assumed)
T2 construct: whole, on cells; also called cytokine over-expressing Expi293 cells
T2 sequence (looked up): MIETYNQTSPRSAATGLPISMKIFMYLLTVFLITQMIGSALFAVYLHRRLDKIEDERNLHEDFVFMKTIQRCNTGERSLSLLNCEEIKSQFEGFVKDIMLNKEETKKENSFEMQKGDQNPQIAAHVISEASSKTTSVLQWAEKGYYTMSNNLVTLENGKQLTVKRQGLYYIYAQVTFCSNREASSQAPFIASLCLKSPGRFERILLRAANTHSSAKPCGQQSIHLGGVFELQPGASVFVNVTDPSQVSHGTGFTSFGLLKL


Key:
CD40L = molecular target: T1, CD40L; assay: SPR (Carterra LSA), antibody amine-coupled, 1:1 model
Experimental: SPR experiments were performed on a Carterra LSA SPR biosensor equipped with a HC30M chip at 25° C. in HBS-TE. Antibodies were diluted to 10 μg/mL and amine-coupled to the sensor chip by EDC/NHS activation, followed by ethanolamine HCl quenching. Increasing concentrations of analyte were flowed over the sensor chip in HBS-TE with 0.5 mg/mL BSA with 5-minute association and 15-minute dissociation. Following each injection cycle the surface was regenerated with 2× 30-second injections of IgG elution buffer (Thermo). Data were analyzed in Carterra's Kinetics Tool software with 1:1 binding model.

[1] = molecular target: T2, CD40L over-expressed on Expi293 cells; assay: flow cytometry, 100 nM antibody, CD40L-Expi293 vs parent Expi293 cells;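 note: ratio is the mean fluorescence intensity on CD40L-overexpressing Expi293 cells divided by the mean fluorescence intensity on parental Expi293 cells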
Experimental: All incubations and washes were in buffer containing PBS+1% BSA. MFI Ratio is defined by the mean fluorescence intensity (MFI) of the cytokine over-expressing Expi293 cell over the Expi293 parent cell. […] EC50 was calculated in GraphPad Prism.

Row | Kd (CD40L) [nM] | koff (CD40L) [s⁻¹] | kon (CD40L) [M⁻¹ s⁻¹] | 100 nM FACS (MFI Ratio) [1] [ratio] | Binder
1 | 0.986 | 9.43e-05 | 95600 | 119 | CD40L-1 (VHH) VHH: EVQLVESGGGLVQPGGSLRLSCAASGRTFSSIYAMGWFRQAPGKEREFIAVIYWRDGSTLYADSVKGRFTISADNSKNTAYLQMNSLKPEDTAVYYCAAEPYGSGSSLISEYDWGQGTLVTVSS
2 |  |  |  | 6.6 | CD40L-125 (VHH) VHH: EVQLVESGGGLVQPGGSLRLSCAASGFTFDYYTMGWFRQAPGKEREFVAVIYSSDGSTLYADSVKGRFTISADNSKNTAYLQMNSLKPEDTAVYYCAIDEGMDYDGNFYDWGQGTLVTVSS
3 | ≤ 0.0113 | ≤ 1e-05 | 888000 | 37.3 | CD40L-13 (VHH) VHH: EVQLVESGGGLVQPGGSLRLSCAASGFTFGNYDMGWFRQAPGKEREFVAAIDASGGFTEYADSVKGRFTISADNSKNTAYLQMNSLKPEDTAVYYCASDHYDTDTKSDVYNWGQGTLVTVSS
4 | 1.78 | 0.000538 | 303000 | 22.5 | CD40L-14 (VHH) VHH: EVQLVESGGGLVQPGGSLRLSCAASGFTFSTYDMGWFRQAPGKEREFVAAVSQSGLLTFYADSVKGRFTISADNSKNTAYLQMNSLKPEDTAVYYCASDHYDTDTKSDVYNWGQGTLVTVSS
5 | 1.37 | 0.0004 | 291000 | 80.9 | CD40L-8 (VHH) VHH: EVQLVESGGGLVQPGGSLRLSCAASGRTFSRSDMGWFRQAPGKEREFVAVISWSGAYTEYADSVKGRFTISADNSKNTAYLQMNSLKPEDTAVYYCASDHYDTDTKSDVYNWGQGTLVTVSS
6 | 0.295 | 0.000196 | 662000 | 72.9 | CD40L-5 (VHH) VHH: EVQLVESGGGLVQPGGSLRLSCAASGLLFSSYDMGWFRQAPGKEREFVAAIDASGGFTEYADSVKGRFTISADNSKNTAYLQMNSLKPEDTAVYYCASDHYDTDTKSDVYNWGQGTLVTVSS
7 | 0.882 | 0.000574 | 651000 | 84 | CD40L-11 (VHH) VHH: EVQLVESGGGLVQPGGSLRLSCAASGRTWNDLDMGWFRQAPGKEREFVAAISMSGEDAAYADSVKGRFTISADNSKNTAYLQMNSLKPEDTAVYYCASDHYDTDTKSDVYNWGQGTLVTVSS
8 | 3 | 0.000555 | 185000 | 44.4 | CD40L-23 (VHH) VHH: EVQLVESGGGLVQPGGSLRLSCAASGSIDRINAMGWFRQAPGKEREFVAVIYSSDGSTLYADSVKGRFTISADNSKNTAYLQMNSLKPEDTAVYYCAAEPYGSGSSLISEYDWGQGTLVTVSS
9 | 5.82 | 0.00147 | 252000 | 11.8 | CD40L-4 (VHH) VHH: EVQLVESGGGLVQPGGSLRLSCAASGFTLDYYAMGWFRQAPGKEREFVAYVFGGGEITDYADSVKGRFTISADNSKNTAYLQMNSLKPEDTAVYYCANGNGVAETWGQGTLVTVSS
10 | 0.453 | 0.000106 | 234000 | 93.9 | CD40L-45 (VHH) VHH: EVQLVESGGGLVQPGGSLRLSCAASGLNLSRLDMGWFRQAPGKEREFVAASSWTGANTYYADSVKGRFTISADNSKNTAYLQMNSLKPEDTAVYYCASDHYDTDIKSDVYNWGQGTLVTVSS
11 | 0.491 | 0.000211 | 429000 | 123 | CD40L-26 (VHH) VHH: EVQLVESGGGLVQPGGSLRLSCAASGLTFSRYEMGWFRQAPGKEREFVAAVTEDGSINYADSVKGRFTISADNSKNTAYLQMNSLKPEDTAVYYCAAEIGYYSGGTYFSSEAWGQGTLVTVSS
12 | 0.118 | 0.000108 | 915000 | 50.4 | CD40L-60 (VHH) VHH: EVQLVESGGGLVQPGGSLRLSCAASGLNLSRLDMGWFRQAPGKEREFVAAVDNDDNTEYADSVKGRFTISADNSKNTAYLQMNSLKPEDTAVYYCASDHYDTDTKSDVYNWGQGTLVTVSS
13 |  |  |  | 14.2 | CD40L-122 (VHH) VHH: EVQLVESGGGLVQPGGSLRLSCAASGLLFSSYDMGWFRQAPGKEREFVAAISWSTGSGDDTYYADSVKGRFTISADNSKNTAYLQMNSLKPEDTAVYYCASDHYDTDTKSDVYNWGQGTLVTVSS
14 | ≤ 0.326 | ≤ 1e-05 | 30700 | 93.6 | CD40L-10 (VHH) VHH: EVQLVESGGGLVQPGGSLRLSCAASGRIFSTYFMGWFRQAPGKEREFVAAIYWSNGKTQYADSVKGRFTISADNSKNTAYLQMNSLKPEDTAVYYCAAWLNGGNRWGQGTLVTVSS
15 | 6.93 | 0.000121 | 17400 | 95.4 | CD40L-7 (VHH) VHH: EVQLVESGGGLVQPGGSLRLSCAASGHTFSSYYMGWFRQAPGKEREFVAAIYSGGITTHYADSVKGRFTISADNSKNTAYLQMNSLKPEDTAVYYCAAWLNGGNRWGQGTLVTVSS
16 | 47.9 | 0.00121 | 25300 | 36.8 | CD40L-49 (VHH) VHH: EVQLVESGGGLVQPGGSLRLSCAASGRTFSRYYMGWFRQAPGKEREFVAAIYWSNGKTQYADSVKGRFTISADNSKNTAYLQMNSLKPEDTAVYYCAAWLNGGNRWGQGTLVTVSS
17 | 2.91 | 0.000159 | 54700 | 87.9 | CD40L-3 (VHH) VHH: EVQLVESGGGLVQPGGSLRLSCAASGRIFSTYFMGWFRQAPGKEREWVSSIYSDGSTTDYADSVKGRFTISADNSKNTAYLQMNSLKPEDTAVYYCAAWLNGGNRWGQGTLVTVSS
18 | 2.39 | 0.000199 | 83300 | 97.7 | CD40L-37 (VHH) VHH: EVQLVESGGGLVQPGGSLRLSCAASGRTFSSYYMGWFRQAPGKEREEVATFYTGDGRTYYADSVKGRFTISADNSKNTAYLQMNSLKPEDTAVYYCAAWLNGGNRWGQGTLVTVSS
19 | 3.18 | 0.000725 | 228000 | 99.1 | CD40L-2 (VHH) VHH: EVQLVESGGGLVQPGGSLRLSCAASGGRTFSRYDMGWFRQAPGKEREFVAAISMSGDDAAYADSVKGRFTISADNSKNTAYLQMNSLKPEDTAVYYCASDHYDTDTKSDVYNWGQGTLVTVSS
20 | 0.0983 | 0.000167 | 1.7e+06 | 104 | CD40L-53 (VHH) VHH: EVQLVESGGGLVQPGGSLRLSCAASGGRTFSDYDMGWFRQAPGKEREFVAAIDASGGFTEYADSVKGRFTISADNSKNTAYLQMNSLKPEDTAVYYCASDHYDTDTKSDVYNWGQGTLVTVSS

From patent publication US20230265179A1 (TWIST BIOSCIENCE, published 2023)
